Patent publication US20080207488A1, “Method for Detecting Peptides Comprising a Cross-B Structure” (priority 2005, published 2008)

Legend:
tPA [1] = biological target: T1, tPA (Homo sapiens, UniProt P00750); assay: Plasminogen-activation assay (tPA-mediated Plg to Pls, S-2251); type: biochemical; details: 100 μg ml^−1 protein
T1 construct: purchased Boehringer-Ingelheim (Actilyse, Alteplase)
Method: Plasmin (Pls) activity was assayed as described^7. Peptides and proteins that were tested for their stimulatory ability were regularly used at 100 μg ml^−1. […] Chromogenic substrate S-2251 (Chromogenix, Instrumentation Laboratory SpA, Milano, Italy) was used to measure Pls activity. Conversion of zymogen factor XII (#233490, Calbiochem, EMD Biosciences, Inc., San Diego, Calif.) to proteolytically active factor XII (factor XIIa) was assayed by measurement of the conversion of chromogenic substrate Chromozym-PK (Roche Diagnostics, Almere, The Netherlands) by kallikrein. Chromozym-PK was used at a concentration of 0.3 mM. Factor XII, human plasma prekallikrein (#529583, Calbiochem) and human plasma cofactor high-molecular weight kininogen (#422686, Calbiochem) were used at concentrations of 1 μg ml^−1. […] Assays were performed using microtiter plates (Costar, Cambridge, Mass., USA). Peptides and proteins were tested for their ability to activate factor XII. […] The conversion of Chromozym-PK was recorded kinetically at 37° C. for at least 60 minutes. […] With S-2222, activation of factor XII in plasma was measured, using 60% v/v plasma, diluted with substrate and H2O with or without potential cofactor. Furthermore, auto-activation of factor XII was measured by incubating 53 μg ml^−1 purified factor XII in 50 mM Tris-HCl buffer pH 7.5 with 1 mM EDTA and 0.001% v/v Triton-X100, with S-2222 and H2O with or without potential cofactor.
Formulated protein therapeutics were obtained from the local hospital pharmacy and were used as supplied by the manufacturers. […] Enhancement in fluorescence of ThT and Congo red was measured with all formulated protein therapeutics. […]
To prepare structurally altered ovalbumin (OVA) with amyloid cross-β structure conformation, purified OVA (Sigma, A-7641, lot 071k7094) was heated to 85° C. […] Native OVA (nOVA) and heat-denatured OVA (dOVA) were tested in the ThT fluorescence assay and in the Plg-activation assay. In the fluorescence assay and in the Plg-activation assay, 25 and 100 μg ml^−1 nOVA and dOVA were tested, respectively. […]

[2] = ThT fluorescence of LPS-protein mixtures; type: physicochemical; details: 1 mg ml^−1 protein exposed to 600 μg ml^−1 LPS (FIG. 4C)
Method: (§1) Fluorescence of ThT-protein/peptide adducts was measured as follows. […] Fluorescence was measured at 485 nm upon excitation at 435 nm. Background signals from buffer, buffer with ThT and protein/peptide solution without ThT were subtracted from corresponding measurements with protein solution incubated with ThT. […] Fluorescence was measured in triplicate on a Hitachi F-4500 fluorescence spectrophotometer (Ltd., Tokyo, Japan).
Subsequently, the ability to enhance ThT fluorescence was determined with 40× diluted solution, as described above. […]

[3] = ThT fluorescence of CpG-ODN-protein mixtures; type: physicochemical; details: 1 mg ml^−1 protein exposed to 21.4 μg ml^−1 CPG-ODN (FIG. 4F)
Method: as §1
Enhancement of ThT fluorescence was measured similarly as described above. […]

tPA [4] = biological target: T1, tPA; assay: ELISA, binding of β2GPI to immobilized tPA
Method: (§2) Binding of purified human factor XII from plasma (Calbiochem) or of purified recombinant human tPA to β2GPI purified from human plasma, or to recombinant human β2GPI was tested in an ELISA. Ten μg of factor XII or tPA in PBS was coated onto wells of a Costar 2595 ELISA plate (Cambridge, USA) and incubated with concentration series of the two β2GPI preparations. Binding of β2GPI was assessed with monoclonal antibody 2B2^13.

factor XII = biological target: T2, factor XII (Homo sapiens, UniProt P00748); assay: ELISA, binding of β2GPI to immobilized factor XII
T2 construct: purchased Calbiochem, EMD Biosciences #233490
T2 sequence (P00748 20-615): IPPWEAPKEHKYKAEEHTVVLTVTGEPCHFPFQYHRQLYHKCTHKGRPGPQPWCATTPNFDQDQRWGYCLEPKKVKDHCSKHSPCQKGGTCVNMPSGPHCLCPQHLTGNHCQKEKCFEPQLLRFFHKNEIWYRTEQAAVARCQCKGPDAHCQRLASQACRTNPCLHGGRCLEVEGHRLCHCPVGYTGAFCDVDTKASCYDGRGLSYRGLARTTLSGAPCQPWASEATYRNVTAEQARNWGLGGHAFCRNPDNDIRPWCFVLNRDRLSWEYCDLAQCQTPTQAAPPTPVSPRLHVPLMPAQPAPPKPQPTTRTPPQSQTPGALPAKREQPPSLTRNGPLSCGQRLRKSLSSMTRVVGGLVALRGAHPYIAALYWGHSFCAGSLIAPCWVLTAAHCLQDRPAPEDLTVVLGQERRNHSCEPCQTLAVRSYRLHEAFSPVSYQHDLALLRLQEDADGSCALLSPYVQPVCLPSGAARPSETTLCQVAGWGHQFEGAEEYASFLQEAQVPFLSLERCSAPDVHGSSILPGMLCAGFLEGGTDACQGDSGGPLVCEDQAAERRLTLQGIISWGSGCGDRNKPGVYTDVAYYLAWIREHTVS
Method: as §2

[5] = test system: anti-β2GPI auto-antibodies; assay: Interference with binding of anti-β2GPI autoantibodies to immobilized β2GPI; design: species or system human; details: antibodies from Anti-phospholipid syndrome patients
Method: When plasma derived β2GPI is coated onto hydrophilic ELISA plates, anti-β2GPI auto-antibodies isolated from plasma of antiphospholipid syndrome auto-immune patients can bind^14. To study the influence of co-incubations of the coated β2GPI with the antibodies together with plasma β2GPI or recombinant β2GPI, concentration series of β2GPI were added to the patient antibodies. Subsequently, binding of the antibodies to coated β2GPI was determined.

[6] = ThT fluorescence of β2GPI with or without CL vesicles or DXS500k; type: physicochemical; details: 25 μg ml^−1 β2GPI, 100 μM CL vesicles or 250 μg ml^−1 DXS
Method: ThT fluorescence of β2GPI was measured as follows. […] CL vesicles were prepared according to an established procedure. Briefly, CL was dried under a stream of nitrogen. The lipids were resuspended to a concentration of 10 mg ml^−1 in 25 mM Tris-HCl, pH 7.3, 150 mM NaCl by vigorous agitation, using a vortex. In the ThT fluorescence assay, fluorescence of β2GPI in buffer, of CL or DXS500k in buffer, of buffer and ThT alone, and of β2GPI-CL adducts and β2GPI-DXS500k adducts, with or without ThT, was recorded as described above (section ThT fluorescence). In addition, TEM images were recorded with CL, β2GPI from human plasma, with or without CL, and with recombinant β2GPI, as described^1.

T1 sequence (P00750 36-562): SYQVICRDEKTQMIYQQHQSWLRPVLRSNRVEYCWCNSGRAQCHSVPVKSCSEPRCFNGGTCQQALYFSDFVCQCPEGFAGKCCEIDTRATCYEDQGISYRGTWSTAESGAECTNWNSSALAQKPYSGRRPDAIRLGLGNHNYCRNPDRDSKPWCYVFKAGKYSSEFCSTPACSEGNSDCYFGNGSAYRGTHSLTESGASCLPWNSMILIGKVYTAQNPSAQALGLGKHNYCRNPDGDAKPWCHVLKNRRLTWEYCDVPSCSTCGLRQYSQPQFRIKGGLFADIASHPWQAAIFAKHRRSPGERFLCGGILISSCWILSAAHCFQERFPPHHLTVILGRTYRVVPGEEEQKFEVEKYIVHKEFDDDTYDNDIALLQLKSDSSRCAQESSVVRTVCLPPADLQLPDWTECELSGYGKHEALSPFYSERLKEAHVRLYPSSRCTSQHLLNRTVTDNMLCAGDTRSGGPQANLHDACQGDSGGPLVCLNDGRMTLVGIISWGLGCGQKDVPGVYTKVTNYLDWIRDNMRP

B1: plasma β2GPI: β2-glycoprotein I purified from fresh human plasma (protein)
chain: GRTCPKPDDLPFSTVVPLKTFYEPGEEITYSCKPGYVSRGGMRKFICPLTGLWPINTLKCTPRVCPFAGILENGAVRYTTFEYPNTISFSCNTGFYLNGADSAKCTEEGKWSPELPVCAPIICPPPSIPTFATLRVYKPSAGNNSLYRDTAVFECLPQHAMFGNDTITCTTHGNWTKLPECREVKCPFPSRPDNGFVNYPAKPTLYYKDKATFGCHDGYSLDGPEEIECTKLGNWSAMPSCKASCKVPVKKATVVYQGERVKIQEKFKNGMLHGDKVSFFCKNKEKKCSYTEDAQCIDGTIEVPKCFKEHSSLAFWKTDASDVKPC
stimulation of tPA-mediated conversion of Plg to Pls (tPA [1]): not | ThT fluorescence enhancement [2]: ~2 times | increased ThT fluorescence [3]: ~2 factor | binding to tPA (tPA [4]): not bind | binding to factor XII (factor XII): not bind | inhibition of binding of anti-β2GPI auto-antibodies to immobilized β2GPI [5]: minor effect on antibody binding | ThT fluorescence after exposure to CL vesicles or DXS [6]: increased fluorescence of ThT
